Experimental data as given in patent US20220153854A1 (Ablynx, published 2022).

Experiments:
human OX40L [1] = molecular target: T1, human OX40L (human, UniProt P23510 51-183); test: Gyrolab in-solution affinity, 48 h incubation; 95% CI 98-120 pM
T1 construct: Protein in solution or immobilised (SPR, Gyrolab); construct not described; also called huOX40L; hOX40L
T1 sequence (looked up): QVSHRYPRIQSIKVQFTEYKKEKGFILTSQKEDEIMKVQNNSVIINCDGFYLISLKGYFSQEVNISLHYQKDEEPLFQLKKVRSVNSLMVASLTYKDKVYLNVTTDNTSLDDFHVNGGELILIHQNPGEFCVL
Procedure: (§1) Under receptor-controlled measurements a serial dilution of OX40L (ranging from 1.3 μM-0.031 μM), IL-13 (ranging from 0.1 μM-0.25 fM), or serum albumin (ranging from 100 μM-3.2 μM) and a fixed amount of ISVD construct F027100187 (5 nM in case of OX40L, […] in case of IL-13 and 30 nM in case of HSA and cyno SA) were mixed to allow interaction and incubated for either 24 or 48 hours (in case of OX40L and IL-13) or 2 hours (in case of serum albumin) to reach equilibrium.
(§2) Biotinylated human OX40L/IL-13/serum albumin was captured in the microstructures of a Gyrolab Bioaffy 1000 CD, which contains columns of beads and was used as a molecular probe to capture free F027100187 from the equilibrated solution. The mixture of OX40L/IL13/serum albumin and F027100187 (containing free OX40UIL-13/serum albumin, free F027100187 and OX40L/IL13/serum albumin—F027100187 complexes) was allowed to flow through the beads, and a small percentage of free F027100187 was captured, which is proportional to the free ISVD construct concentration. A fluorescently labeled anti-ISVD antibody, ABH0086-Alexa647, was then injected to label any captured F027100187 and after rinsing away excess of fluorescent probe, the change in fluorescence was determined. Fitting of the dilution series was done using Gyrolab Analysis software, where KD- and receptor-controlled curves were analyzed to determine the KD value.

human OX40L [2] = molecular target: T1, human OX40L; test: Gyrolab in-solution affinity, 24 h incubation; 95% CI 64.7-91.0 pM
Procedure: as §1, §2

human TRAIL = molecular target: T2, human TRAIL (human, UniProt P50591 114-281, limits assumed); test: SPR (ProteOn XPR36), cytokine immobilised by amine coupling
T2 construct: also called hTRAIL
T2 sequence (P50591 114-281 limits assumed): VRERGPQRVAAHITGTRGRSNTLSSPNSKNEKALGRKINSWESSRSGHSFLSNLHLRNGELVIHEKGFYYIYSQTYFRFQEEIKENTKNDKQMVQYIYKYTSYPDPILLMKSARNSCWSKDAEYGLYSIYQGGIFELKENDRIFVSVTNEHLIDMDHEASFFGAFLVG
Procedure: (§3) Absence of binding to OX40L and IL-13 related human cytokines was assessed via SPR (Proteon XPR36). As IL-13 related cytokine, IL-4 was assessed. As OX40L related targets, human TRAIL, CD30L, CD40L and RANKL were assessed.
(§4) To this end, the cytokines were immobilized on a ProteOn GLC sensor chip at 25 μg/mL for 600 s using amine coupling, with 80 seconds injection of EDC/NHS for activation and a 150-seconds injection of 1 M Ethanolamine HCl for deactivation (ProteOn Amine Coupling Kit. cat. 176-2410). Flow rate during activation and deactivation was set to 30 μl/min, and during ligand injection to 25 μl/min. The pH of the 10 mM acetate immobilization buffer was 6.0 for all cytokines, except for RANKL where the pH was 5.0.
(§5) Next, 1 μM of F027100187 was injected for 2 minutes and allowed to dissociate for 600 s at a flow rate of 45 μL/min. As running buffer PBS (pH7.4)+0.005% Tween 20 was used. As positive controls, 100 nM α-hIL-4, α-hTRAIL, α-hCD30L, α-hCD40L Ab and α-hRANKL VHH (Nanobody®, Nb) were injected. Interaction between F027100187 and the positive controls with the immobilized targets was measured by detection of increases in refractory index which occurs as a result of mass changes on the chip upon binding.

human RANKL = molecular target: T3, human RANKL (human, UniProt O14788 140-317, limits assumed); test: as above
T3 construct: also called hRANKL
T3 sequence (looked up): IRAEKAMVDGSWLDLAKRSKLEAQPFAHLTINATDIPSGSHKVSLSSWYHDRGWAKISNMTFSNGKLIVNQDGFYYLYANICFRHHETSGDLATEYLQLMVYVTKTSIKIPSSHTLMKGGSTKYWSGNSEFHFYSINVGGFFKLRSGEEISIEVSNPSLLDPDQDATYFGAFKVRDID
Procedure: as §3, §4, §5

human CD40L = molecular target: T4, human CD40L (human, UniProt P29965 113-261, limits assumed); test: as above
T4 construct: also called hCD40L
T4 sequence (looked up): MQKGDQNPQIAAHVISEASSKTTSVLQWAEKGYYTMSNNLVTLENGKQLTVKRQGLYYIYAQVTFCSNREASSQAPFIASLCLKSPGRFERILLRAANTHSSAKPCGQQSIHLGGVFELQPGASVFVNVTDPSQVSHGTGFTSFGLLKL
Procedure: as §3, §4, §5

cyno serum albumin = molecular target: T5, cyno serum albumin (cynomolgus monkey); test: Gyrolab in-solution affinity, 2 h incubation; 95% CI 9.0-12.3 nM
T5 construct: also called cyno SA; cynomolgus monkey serum albumin
T5 sequence (A2V9Z4 25-608): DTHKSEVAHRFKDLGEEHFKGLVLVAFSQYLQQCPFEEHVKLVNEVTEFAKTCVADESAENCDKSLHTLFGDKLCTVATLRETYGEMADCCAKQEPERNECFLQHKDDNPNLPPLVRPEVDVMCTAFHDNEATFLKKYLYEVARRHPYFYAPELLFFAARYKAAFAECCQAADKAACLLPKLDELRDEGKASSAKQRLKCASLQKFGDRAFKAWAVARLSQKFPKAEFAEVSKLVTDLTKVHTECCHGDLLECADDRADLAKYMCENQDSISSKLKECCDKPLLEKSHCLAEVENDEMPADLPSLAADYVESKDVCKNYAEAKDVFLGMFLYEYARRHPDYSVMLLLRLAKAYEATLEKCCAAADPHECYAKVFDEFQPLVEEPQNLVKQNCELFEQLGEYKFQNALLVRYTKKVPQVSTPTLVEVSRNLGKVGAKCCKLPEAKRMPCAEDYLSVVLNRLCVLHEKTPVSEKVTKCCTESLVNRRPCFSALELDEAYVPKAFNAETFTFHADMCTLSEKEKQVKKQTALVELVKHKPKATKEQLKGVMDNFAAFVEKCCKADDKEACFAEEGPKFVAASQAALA
Procedure: as §1, §2

human IL-13 = molecular target: T6, human IL-13 (human, UniProt P35225 35-146, limits assumed); test: Gyrolab in-solution affinity, 48 h incubation; 95% CI 3.4-7.1 pM
T6 construct: Recombinant soluble protein; also called hIL-13; soluble hIL-13
T6 sequence (P35225 35-146 limits assumed): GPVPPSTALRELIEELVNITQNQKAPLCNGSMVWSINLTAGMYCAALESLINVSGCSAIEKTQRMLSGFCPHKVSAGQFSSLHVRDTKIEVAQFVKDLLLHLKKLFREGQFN
Procedure: as §1, §2

[3] = molecular target: T7, membrane bound cyno OX40L on CHO-KI cells (cynomolgus monkey, UniProt G7NVH7 1-183); test: flow cytometry on fixed CHO-KI cells expressing cyno OX40L, 48 h incubation
T7 construct: whole, on cells; also called CHO-KI cells expressing cyno OX40L
T7 sequence: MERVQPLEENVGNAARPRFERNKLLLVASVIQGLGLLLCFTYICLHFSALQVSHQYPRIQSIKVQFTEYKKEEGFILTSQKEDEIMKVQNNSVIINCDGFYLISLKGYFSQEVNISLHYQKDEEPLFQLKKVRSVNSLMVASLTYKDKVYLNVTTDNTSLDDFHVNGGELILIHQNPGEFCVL
Procedure: Briefly, cells were fixed with 4% paraformaldehyde and 0.1% Glutaraldehyde in PBS, seeded at a density of 1×10⁴ cells/well and incubated with a dilution series of ISVD F027100187 or reference compound anti-hOX40L mAb, named Comparator 3, starting from 100 nM […] 0.5 μM, for 48 hours at room temperature. Comparator 3 is a standard conventional monoclonal antibody directed against human OX40L, which is used as a reference throughout the Examples 1 to 12 described herein. Cells were washed 3 times and subsequently incubated with an anti-VHH mAb (ABH00119) for 30 min at 4° C., washed again, and incubated for 30 min at 4° C. with a goat anti-mouse PE or FITC labeled antibody. Samples were washed and resuspended in FACS Buffer (D-PBS with 10% FBS and 0.05% sodium azide supplemented with 5 nM TOPRO3). Cell suspensions were then analyzed on an iQuescreener. EC50 values were calculated using GraphPad Prism.

Kd (human OX40L [1]): 0.109 nM
Kd (human OX40L [2]): 0.0778 nM
binding result (human TRAIL): no binding (tested: 1 µM)
binding result (human RANKL): no binding (tested: 1 µM)
binding result (human CD40L): no binding (tested: 1 µM)
Kd (cyno serum albumin): 10.6 nM
Kd (human IL-13): 0.0053 nM
EC50 [3]: 0.0363 nM
B1: ISVD construct F027100187 (other)
chain: DVQLVESGGGVVQPGGSLRLSCAASRSIGRYDRMGWYRHRPGEPRELVATITGGSSINYGDSVKGRFTISIDNSKNTVYLQMNSLRPEDTALYYCNFNKYQISRDTWGQGTLVTVSSGGGGSGGGSEVQLVESGGGVVQPGGSLRLSCAASGRTFSSYRMGWFRQAPGKEREFVAALSGDGYSTYTANSVKGRFTISRDNSKNTVYLQMNSLRPEDTALYYCAAKLQYVSGWSYDYPYWGQGTLVTVSSGGGGSGGGSEVQLVESGGGVVQPGGSLRLSCAASGFTFRSFGMSWVRQAPGKGPEWVSSISGSGSDTLYADSVKGRFTISRDNSKNTLYLQMNSLRPEDTALYYCTIGGSLSRSSQGTLVTVSSGGGGSGGGSEVQLVESGGGVVQPGGSLRLSCAASGFTFNNYAMKWVRQAPGKGLEWVSSITTGGGSTDYADSVKGRFTISRDNSKNTLYLQMNSLRPEDTALYYCANVPFGYYSEHFSGLSFDYRGQGTLVTVSSA
notes: Tetravalent, trispecific single-chain construct of four VHH (ISVD) domains: one against OX40L, two against IL-13, one against serum albumin; also called F0271000187; F27100187
